# Reference: article PMC4003184 (The Journal of General Physiology, 2014)
# B1: AKAP150 fused to EGFP (natural protein, UniProt P24587 1-714, looked up)
# chain: METSVSEIQIETKDEKRPEAASPQKERQERKTATLCFKRRKKVNKKKAKAGSKTAEETEKHAPEAGGSGQRQPAGAWASIKRLVTHRKPSESAEKQKPSEAEMQPEDGALPKKKTKSKLKIPCIRFSRGAKRSRPSKLTEDSGYVRVQGEADDLEIKAQIQPDEQATQAKSTQGLQEDVIVRDGKEIQESHISNNVISGEHVIGIELELEKESSALRMRTPGSEKEAKVILVKQGVQVQEASVLENSAADSPQPVTSTAPLSPATTHQLGLEEPSDSIRESAPSGKDDGRRKTAAEEKKSGETALGQAEEASSVSQADKSVLSQAEEATVGHTEEATVIQAQSQAKEGKLSQAEEATVAQAKETVLSQAEEVKLSQIEEPAISQAKKATVGQAKEAYVSQAEEAIVGHTEKATMGQAEEATVGHIEKTTVGQAEEATVGQAEEATVGQAEEATVGQAEEATVGQAEEATVGQAGEATVSHIEKTTVGQAEEAIVGQAEEATVGQAEEATVGQAEEATVGQAEEATVDQAEEATVGQAEEATVGQAGEAAVGQAEEAIVAQAEEATVGQAGEATVGQAEKATVGQAEEPIVGQAEETVLRHASDLKVNGVDAEKPRSEESKRMEPIAIIITDTEISEFDVKKSKNVPKQFLISMENEQVGVFANDSDFEGRTSEQYETLLIETASSLVKNAIELSVEQLVNEMVSEDNQINTLFQ
# Biological target: mouse TRPV4 fused to mCherry (mouse, UniProt Q9EPK8 1-871)
# Experiment: cross-correlation raster image correlation spectroscopy
# Sequence of mouse TRPV4 fused to mCherry (Q9EPK8 whole entry, the tested form may be a part): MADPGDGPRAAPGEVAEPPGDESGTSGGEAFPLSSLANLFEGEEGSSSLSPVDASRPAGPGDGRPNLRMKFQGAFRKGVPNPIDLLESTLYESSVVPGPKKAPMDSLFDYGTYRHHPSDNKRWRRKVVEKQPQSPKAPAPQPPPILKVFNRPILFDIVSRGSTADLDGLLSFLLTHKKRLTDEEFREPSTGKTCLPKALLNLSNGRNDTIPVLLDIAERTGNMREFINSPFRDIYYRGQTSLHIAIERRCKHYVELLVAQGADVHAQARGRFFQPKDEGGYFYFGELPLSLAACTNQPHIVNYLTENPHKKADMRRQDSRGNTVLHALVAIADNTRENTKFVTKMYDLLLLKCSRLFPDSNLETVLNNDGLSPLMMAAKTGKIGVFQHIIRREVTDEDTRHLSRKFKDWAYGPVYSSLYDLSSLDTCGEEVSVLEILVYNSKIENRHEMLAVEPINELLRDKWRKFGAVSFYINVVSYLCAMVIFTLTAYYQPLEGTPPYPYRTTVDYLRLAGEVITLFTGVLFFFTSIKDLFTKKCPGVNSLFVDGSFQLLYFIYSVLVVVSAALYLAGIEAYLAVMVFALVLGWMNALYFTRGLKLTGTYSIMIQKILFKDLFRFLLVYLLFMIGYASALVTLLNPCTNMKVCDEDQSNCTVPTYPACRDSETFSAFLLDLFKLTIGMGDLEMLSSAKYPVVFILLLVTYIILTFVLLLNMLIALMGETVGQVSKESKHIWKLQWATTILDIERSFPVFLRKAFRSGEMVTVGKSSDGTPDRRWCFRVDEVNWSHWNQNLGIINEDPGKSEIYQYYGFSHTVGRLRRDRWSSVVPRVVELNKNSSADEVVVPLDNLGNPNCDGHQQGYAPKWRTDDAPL
binder,measurement,value
B1,cross-correlation ratio (Gcc/[mean of G_(TRPV4) and G_(AKAP)]),0.4
